In the Human Domainome abundance scans (Beltran et al. 2025):

B1: Homeobox expressed in ES cells 1, residues 110 to 165; numbered along this chain, Q9UBX0 (parent)
chain: RPRTAFTQNQIEVLENVFRVNCYPGIDIREDLAQKLNLEEDRIQIWFQNRRAKLKR

Variants of: B1
Test: abundance fitness (aPCA) (normalised: wild type 0, dead -1); higher = more abundant; growth selection in yeast, the domain comes from the species named
Settings: Homo sapiens

Abundance fitness, by site and new letter:
R19: Y -0.614; T -0.01; I -0.327; Q -0.187; V -0.142; F -0.467; S -0.334; W -0.64; M -0.529; K -0.105; H -0.46; G -0.452; E -0.291; C -0.354
G25: M -0.688; Q -0.744; K 0.11; S -0.106; C -0.282; E -0.065; P 0.187; T -0.027; W -0.755; A -0.079; V -1.11; H 0.151; L -0.874; Y -0.741
V20: F 0.333; Y -0.667; N 0.208; T -0.03; M -0.091; R -0.118; L -0.186; K 0.106; W -0.436; D 0.136; G -0.157; S 0.072; I 0.077; E -0.1; A -0.052; H -0.021; C -0.218
Q34: T 0.046; K -0.119; S -0.197; A -0.423; H -0.129; Y -0.347; D -0.234; E -0.076; I -0.106; G -0.168; L -0.157; N -0.216; R 0.135
C22: P 0.079; T -0.013; R 0.054; S 0.187; G -0.182; V -0.392; M 0.425; A -0.061; D -0.021; W -0.066; I 0.076; L -0.134; Y 0.009; F -0.467; Q 0.156; E 0.227; K -0.328
D27: Q 0.203; C -0.155; W -0.526; A -0.259; N 0.034; K -0.185; I -0.484; H -0.503; R 0.137; E 0.075; V -0.314; G -0.02; P -0.128; M -0.134; L -0.271; S 0.233
N21: G -0.262; M -0.058; C -0.69; Y -0.592; I -0.522; W -0.608; F -0.868; L -0.807; D -0.412; A -1.03; Q -0.158; R -0.948; V -0.578; S -0.454
I26: P 0.054; N 0.226; F -0.08; S -0.078; E -0.19; Y -0.159; G -0.319; M -0.38; K 0.305; A -0.057; R 0.002; W -0.138; L 0.151; C -0.218; D -0.297; T -0.341; Q 0.013
F18: Y -0.083; K -0.845; S -0.819; G -0.812; D -0.701; C -0.625; I -0.328; M -1.06; T -0.82; R -0.71; Q -0.891; L -0.459
I28: E -0.176; P -0.725; G -0.692; L -0.209; C -0.534; M -0.655; R -0.667; Q -0.171; S -0.505; Y -0.309; A -0.089; V 0.045; W -0.577; K -0.852
Y23: R -0.381; C 0.05; K -0.262; N 0.114; T -0.137; S -0.04; V -0.546; W -0.063; A 0.05; M -0.44; Q -0.251; L -0.338; D -0.23; F -0.411
V13: T -0.141; P -0.596; M 0.618; D -0.757; S -0.224; I 0.467; F -0.378; N -0.278; K -0.458; H 0.023; A -0.272; C -0.149; Q -0.184; L -0.543; Y -0.757
L32: F -0.757; Q -0.487; V -0.685; K -0.833; I -0.363; S -0.787; D -0.826; W -0.386; T -0.495; G -0.904; R -0.886; M -0.689; E -0.824; P -0.884; A -0.832
N16: P -1; L -0.561; F -0.962; R -0.417; Y -0.56; D -0.073; Q -0.073; K -0.034; E -0.114; S -0.02; M -0.215; C -0.365; T -0.125; V -0.701; W -0.755
P24: V -0.793; K 0.273; E -0.644; Y -0.366; D -0.606; I -0.662; C -1.09; W -0.896; M -0.815; G -0.641; R -0.995; L -0.392; Q -0.314
A33: V -0.363; E -0.848; C -0.186; G -0.242; S -0.124; Y -0.396; M -0.252; Q 0.36; K -0.566; I -0.703; W -0.694; L -0.89
E12: Y -0.264; K 0.487; T -0.009; F 0.203; S 0.016; R -0.346; V -0.137; Q 0.154; P -1.07; I -0.612; L -0.236; W -0.704; N -0.148; G -0.525; D 0.28
D31: T -0.568; V -0.425; W -0.532; C -0.468; K 0.679; F 0.535; P -0.675; L -0.411; N 0.066; M -0.32; A -0.106; R -0.032; I 0.221; Y -0.158
V17: T -0.151; P -0.743; H -0.427; I -0.091; K -0.552; R -0.84; L -0.308; M -0.197; Q -0.359; A -0.06; E -0.372; S -0.335; Y -0.293; F -0.562; W -0.923
E15: H -0.463; A -0.832; C -0.567; S -0.854; M -0.196; L -0.725; T -0.741; Y -0.528; D -0.621; G -0.686; V -0.81; R -0.503; P -0.499
E30: W -0.002; D -0.18; V -0.186; N 0.514; Y -0.544; G -0.131; M -0.189; P -0.781; K 0.169; L 0.134; I 0.099; H 0.234; C -0.063; R 0.196; S -0.209; A -0.023; F 0.048
R29: A -0.093; T 0.183; P -0.708; N -0.864; I -0.2; K -0.691; D -0.749; S -0.709; Q -0.299; G -0.704; C -0.019; Y -0.284; W -0.18; F -0.198; M 0.303; L -0.222; E -1.23; V 0.011
L14: A -1.02; K -0.519; I -0.298; R -0.77; E -0.87; T -0.463; N -0.506; M -0.267; G -0.88; W -0.625
